From US20220380436A1 (BOARD OF TRUSTEES OF THE UNIVERSITY OF ILLINOIS, published 2022) come the findings set out here.

This assay deals with T1, human PDGFRβ isoform 1, myc-tagged, expressed on Expi293F cells (human, UniProt P09619 33-1106).
T1 construct: not shown: N-terminal myc-tag and linker
Description: flow cytometry, gH/gL/gO-sfGFP medium on Expi293F cells expressing PDGFRβ (negative control). On the technique in general: In flow cytometry, cells or beads pass a laser one at a time.

T1 sequence (P09619 33-1106): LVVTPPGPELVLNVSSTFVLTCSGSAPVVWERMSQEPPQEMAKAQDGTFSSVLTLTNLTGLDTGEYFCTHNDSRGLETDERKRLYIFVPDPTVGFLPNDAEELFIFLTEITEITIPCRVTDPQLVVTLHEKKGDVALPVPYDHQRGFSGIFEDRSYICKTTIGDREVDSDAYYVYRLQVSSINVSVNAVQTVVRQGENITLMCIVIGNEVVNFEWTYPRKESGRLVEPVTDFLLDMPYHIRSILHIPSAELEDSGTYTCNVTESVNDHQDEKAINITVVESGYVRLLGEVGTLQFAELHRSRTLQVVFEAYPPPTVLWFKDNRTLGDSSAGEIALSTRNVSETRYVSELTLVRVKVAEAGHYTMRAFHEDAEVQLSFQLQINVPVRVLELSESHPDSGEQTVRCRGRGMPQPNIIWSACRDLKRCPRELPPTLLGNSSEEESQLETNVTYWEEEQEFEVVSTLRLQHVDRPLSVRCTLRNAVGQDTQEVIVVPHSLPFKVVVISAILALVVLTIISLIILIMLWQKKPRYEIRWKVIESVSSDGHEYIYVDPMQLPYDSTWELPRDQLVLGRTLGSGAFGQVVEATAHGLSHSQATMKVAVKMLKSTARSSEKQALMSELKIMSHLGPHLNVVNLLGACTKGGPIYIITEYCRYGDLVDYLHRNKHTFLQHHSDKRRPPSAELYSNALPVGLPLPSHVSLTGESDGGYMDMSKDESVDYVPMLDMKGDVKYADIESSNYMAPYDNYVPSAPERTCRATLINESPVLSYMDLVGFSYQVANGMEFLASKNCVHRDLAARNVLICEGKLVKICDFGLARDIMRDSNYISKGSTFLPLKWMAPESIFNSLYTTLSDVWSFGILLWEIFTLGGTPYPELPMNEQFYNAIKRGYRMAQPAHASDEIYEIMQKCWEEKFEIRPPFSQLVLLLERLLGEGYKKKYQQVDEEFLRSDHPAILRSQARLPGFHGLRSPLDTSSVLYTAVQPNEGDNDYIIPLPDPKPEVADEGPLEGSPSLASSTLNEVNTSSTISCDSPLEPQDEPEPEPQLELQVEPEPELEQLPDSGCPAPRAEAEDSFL

B1: soluble HCMV glycoprotein trimer gH/gL/gO-sfGFP from strain TB40/E (other)
chain 1: […]
chain 2: VAVSVAPTAAEKVPAECPELTRRCLLGEVFQGDKYESWLRPLVNVTGRNGPLSQLIRYRPVTPEAANSVLLDDAFLDTLALLYNNPDQLRALLTLLSSDTAPRWMTVMRGYSECGDGSPAVYTCVDDLCRGYDLTRLSYGRSIFTEHVLGFELVPPSLFNVVVAIRNEATRTNRAVRLPVSTAAAPEGITLFYGLYNAVKEFCLRHQLDPPLLRHLDKYYAGLPPELKQTRVNLPAHSRYGPQAVDAR
chain 3: […]
notes: also called TB40/E trimer; CMV trimer; not shown: C-terminal FLAG tag; C-terminal superfolder GFP (Pedelacq et al. 2006)
Turning to B1, the binding result is reported as “no binding”.
